Patent publication US20080213187A1, “NOVEL CASCADE POLYMER COMPLEXES, PROCESSES FOR THEIR PREPARATION AND PHARMACEUTICAL COMPOSITIONS COMPRISING THEM” (priority 2007, published 2008)

Columns and labels:
[1] = Plasma kinetics after intravenous administration to rats; format: in vivo; details: for Plasma levels (as % of the dose): i.v. 50 μmol total Gd/kg, ICP-AES
Description: Plasma Kinetics of the Compounds 2e and 4e After Intravenous Administration to Rats
The title substances from Examples 2e and 4e, and for comparison the title substance from Example 1 of EP 0 836 485, were administered intravenously to rats in a dose of 50 μmol of total gadolinium/kg of body weight. Blood samples were then taken through a catheter in the common carotid artery at various times (1, 3, 5, 10, 15, 30, 60, 90, 120, 240, 360 min, and 24 h p.i.), and the metal content was determined by atomic emission spectroscopy (ICP-AES) and converted into plasma levels using a conversion factor (0.625). The kinetic data were calculated (software: WinNonlin) from the plasma concentrations (Tab. 1, 2).

[2] = rats, cited from earlier work
[3] = rats; cited from earlier work
[4] = intravenous, 50 μmol of total gadolinium/kg, calculated with WinNonlin from plasma concentrations

CC(C(=O)NCC(=O)NCCCC[C@H](NC(=O)CNC(=O)C(C)N1CCN(CC(=O)O)CCN(CC(=O)O)CCN(CC(=O)O)CC1)C(=O)NCCCC[C@H](NC(=O)[C@H](CCCCNC(=O)CNC(=O)C(C)N1CCN(CC(=O)O)CCN(CC(=O)O)CCN(CC(=O)O)CC1)NC(=O)CNC(=O)C(C)N1CCN(CC(=O)O)CCN(CC(=O)O)CCN(CC(=O)O)CC1)C(=O)NCCN(CCNC(=O)[C@H](CCCCNC(=O)[C@H](CCCCNC(=O)CNC(=O)C(C)N1CCN(CC(=O)O)CCN(CC(=O)O)CCN(CC(=O)O)CC1)NC(=O)CNC(=O)C(C)N1CCN(CC(=O)O)CCN(CC(=O)O)CCN(CC(=O)O)CC1)NC(=O)[C@H](CCCCNC(=O)CNC(=O)C(C)N1CCN(CC(=O)O)CCN(CC(=O)O)CCN(CC(=O)O)CC1)NC(=O)CNC(=O)C(C)N1CCN(CC(=O)O)CCN(CC(=O)O)CCN(CC(=O)O)CC1)C(=O)c1cc(C(=O)N(CCNC(=O)[C@H](CCCCNC(=O)[C@H](CCCCNC(=O)CNC(=O)C(C)N2CCN(CC(=O)O)CCN(CC(=O)O)CCN(CC(=O)O)CC2)NC(=O)CNC(=O)C(C)N2CCN(CC(=O)O)CCN(CC(=O)O)CCN(CC(=O)O)CC2)NC(=O)[C@H](CCCCNC(=O)CNC(=O)C(C)N2CCN(CC(=O)O)CCN(CC(=O)O)CCN(CC(=O)O)CC2)NC(=O)CNC(=O)C(C)N2CCN(CC(=O)O)CCN(CC(=O)O)CCN(CC(=O)O)CC2)CCNC(=O)[C@H](CCCCNC(=O)[C@H](CCCCNC(=O)CNC(=O)C(C)N2CCN(CC(=O)O)CCN(CC(=O)O)CCN(CC(=O)O)CC2)NC(=O)CNC(=O)C(C)N2CCN(CC(=O)O)CCN(CC(=O)O)CCN(CC(=O)O)CC2)NC(=O)[C@H](CCCCNC(=O)CNC(=O)C(C)N2CCN(CC(=O)O)CCN(CC(=O)O)CCN(CC(=O)O)CC2)NC(=O)CNC(=O)C(C)N2CCN(CC(=O)O)CCN(CC(=O)O)CCN(CC(=O)O)CC2)cc(C(=O)N(CCNC(=O)[C@H](CCCCNC(=O)[C@H](CCCCNC(=O)CNC(=O)C(C)N2CCN(CC(=O)O)CCN(CC(=O)O)CCN(CC(=O)O)CC2)NC(=O)CNC(=O)C(C)N2CCN(CC(=O)O)CCN(CC(=O)O)CCN(CC(=O)O)CC2)NC(=O)[C@H](CCCCNC(=O)CNC(=O)C(C)N2CCN(CC(=O)O)CCN(CC(=O)O)CCN(CC(=O)O)CC2)NC(=O)CNC(=O)C(C)N2CCN(CC(=O)O)CCN(CC(=O)O)CCN(CC(=O)O)CC2)CCNC(=O)[C@H](CCCCNC(=O)[C@H](CCCCNC(=O)CNC(=O)C(C)N2CCN(CC(=O)O)CCN(CC(=O)O)CCN(CC(=O)O)CC2)NC(=O)CNC(=O)C(C)N2CCN(CC(=O)O)CCN(CC(=O)O)CCN(CC(=O)O)CC2)NC(=O)[C@H](CCCCNC(=O)CNC(=O)C(C)N2CCN(CC(=O)O)CCN(CC(=O)O)CCN(CC(=O)O)CC2)NC(=O)CNC(=O)C(C)N2CCN(CC(=O)O)CCN(CC(=O)O)CCN(CC(=O)O)CC2)c1)N1CCN(CC(=O)O)CCN(CC(=O)O)CCN(CC(=O)O)CC1 (stereo partly drawn) [Example No. 1 from EP 0 836 485]
Plasma levels (as % of the dose) ([1]; 1 min p.i.): 75.0% | Plasma levels (as % of the dose) ([1]; 3 min p.i.): 39.2% | Plasma levels (as % of the dose) ([1]; 5 min p.i.): 25.0% | Plasma levels (as % of the dose) ([1]; 10 min p.i.): 6.9% | Plasma levels (as % of the dose) ([1]; 15 min p.i.): 4.0% | Plasma levels (as % of the dose) ([1]; 30 min p.i.): 1.5% | Plasma levels (as % of the dose) ([1]; 60 min p.i.): 1.0% | Plasma levels (as % of the dose) ([1]; 90 min p.i.): 0.9% | Plasma levels (as % of the dose) ([1]; 120 min p.i.): 0.7% | Plasma levels (as % of the dose) ([1]; 240 min p.i.): 0.4% | Plasma levels (as % of the dose) ([1]; 360 min p.i.): 0.4% | Plasma levels (as % of the dose) ([1]; 1440 min p.i.): 0.0%

Octa-Gd complex amide from the Gd complex of 10-(4-carboxy-1-methyl-2-oxo-3-azabutyl)-1,4,7,10-tetraazacyclododecane-1,4,7-triacetic acid with dendritic octaamine 4d [Example 4e]
Plasma levels (as % of the dose) ([1]; 1 min p.i.): 65.9% | Plasma levels (as % of the dose) ([1]; 3 min p.i.): 44.2% | Plasma levels (as % of the dose) ([1]; 5 min p.i.): 30.0% | Plasma levels (as % of the dose) ([1]; 10 min p.i.): 17.5% | Plasma levels (as % of the dose) ([1]; 15 min p.i.): 13.5% | Plasma levels (as % of the dose) ([1]; 30 min p.i.): 8.3% | Plasma levels (as % of the dose) ([1]; 60 min p.i.): 4.5% | Plasma levels (as % of the dose) ([1]; 90 min p.i.): 2.7% | Plasma levels (as % of the dose) ([1]; 120 min p.i.): 1.6% | Plasma levels (as % of the dose) ([1]; 240 min p.i.): 0.3% | Plasma levels (as % of the dose) ([1]; 360 min p.i.): 0.0% | Plasma levels (as % of the dose) ([1]; 1440 min p.i.): 0.0% | Half-life α phase [1, 4]: 3.3 min | Half-life β phase [1, 4]: 42.0 min | Volume of distribution Vd ss [1, 4]: 0.20 L/kg

albumin-GdDTPA
accumulation in liver tissue ([2]; 24 hours after intravenous injection): ~30 % of the dose | dose eliminated ([2]; in 24 hours): 20 % of the dose

polylysine-GdDTPA
excretion behaviour [3]: excreted unchanged by glomerular filtration via the kidney
